Measurements from patent US20250277031A1 (BEIJING HANMI PHARMACEUTICAL, published 2025).

T1: recombinant human B7-H2 (ACROBiosystems) (human, UniProt O75144 19-258, limits assumed)
T1 construct: counted here as a B7 family member
T1 sequence (looked up): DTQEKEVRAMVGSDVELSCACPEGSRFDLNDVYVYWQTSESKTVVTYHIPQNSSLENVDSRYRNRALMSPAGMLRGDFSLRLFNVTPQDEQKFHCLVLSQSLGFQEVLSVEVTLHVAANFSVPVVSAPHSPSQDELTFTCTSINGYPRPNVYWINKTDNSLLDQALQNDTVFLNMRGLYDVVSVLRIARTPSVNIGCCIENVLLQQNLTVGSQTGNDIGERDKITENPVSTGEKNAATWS


How the values were obtained:
[1] = biological target: T2, recombinant human CD47-Fc protein (ACROBiosystems, catalog number CD7-H52A5) (human, UniProt Q08722 19-139); assay: blocking ELISA: plate coated with human CD47-Fc, 2 nM biotin-labelled SIRPα as the blocked ligand, falling OD450 curve; the sheet labels the half-maximal value EC50
T2 construct: bought; not shown: Fc part of a bought fusion protein, not described
Method: (§1) A 96-well high-adsorption ELISA plate was coated with 1 μg/mL of the recombinant human CD47-Fc (ACROBiosystems) at 100 μL per well using carbonate buffer solution, pH=9.6 at 4° C. overnight. The plate was washed 5 times with PBST, and then blocked using PBST with 1% BSA, 300 μL/well, and incubated at 25° C. for 1 hour, and then washed 5 times with PBST. The anti-human CD47 antibody samples were added, 50 μL/well, the biotin-labelled SIRPα (ACROBiosystems) was added at a concentration of 4 nM (a final concentration of 2 nM), 50 μL/well, incubated at 25° C. for 90 minutes, and then washed 5 times with PBST. The Streptavidin-HRP (BD Pharmingen, catalog number 554066) diluted 1:1000 in PBST with 1% BSA was then added, 100 μL per well, and incubated at 25° C. for 1 hour. The plate was washed 5 times with PBST. The colorimetric substrate TMB was added, 100 μL/well, and developed at room temperature for 10 minutes. 1M H₂SO₄ was added, 100 μL/well, to stop the development. The absorbance at 450 nm was read on a microplate reader.

recombinant human CD47 [2] = biological target: T3, recombinant human CD47 (human, UniProt Q08722 19-139); assay: ELISA, plate coated with 1 µg/mL recombinant human CD47, OD450
T3 construct: also called antigen CD47
Method: A 96-well high-adsorption ELISA plate was coated with 1 μg/mL of the recombinant human CD47 (Sino Biological Inc.) at 100 μL per well using carbonate buffer solution, pH=9.6 at 4° C. overnight. The plate was washed 5 times with PBST, and then blocked using PBST with 1% BSA, 300 μL/well, and incubated at 25° C. for 1 hour, and then washed 5 times with PBST. The anti-human CD47 antibody samples and the control CC-90002 (a patent sequence from WO2016109415) were added, 100 μL/well, incubated at 25° C. for 1 hour, and then washed 5 times with PBST. The horseradish peroxidase-labeled anti-mouse IgG antibody (Abcam, catalog number Ab7068) diluted 1:10000 in PBST with 1% BSA was then added, 100 μL per well, and incubated at 25° C. for 1 hour. The plate was washed 5 times with PBST. The colorimetric substrate TMB was added, 100 μL/well, and developed at room temperature for 10 minutes. 1M H₂SO₄ was added, 100 μL/well, to stop the development. The absorbance at 450 nm was read on a microplate reader.

[3] = biological target: recombinant human SIRPγ (ACROBiosystems) (human, UniProt Q9P1W8 29-360, limits assumed); assay: ELISA, coated recombinant protein
Method: (§2) Binding specificity of the chimeric anti-human CD47 mAbs was determined by ELISA. A 96-well high-adsorption ELISA plate was coated with 1 μg/mL of the recombinant human PD1, CD28, CTLA4, ICOS, BTLA, CD47, PD-L2, CD80, CD86, B7-H2, CD47, SIRPα and SIRPγ (all from ACROBiosystems), at 100 μL per well using carbonate buffer solution, pH=9.6 at 4° C. overnight. The plate was washed 5 times with PBST, and then blocked using PBST with 1% BSA, 300 μL/well, and incubated at 25° C. for 1 hour, and then washed 5 times with PBST. The chimeric anti-human CD47 mAb samples serially diluted in PBST with 1% BSA and the control CC-90002 and the isotype control were added, 100 μL/well, incubated at 25° C. for 1 hour, and then washed 5 times with PBST. The horseradish peroxidase-labeled anti-human IgG antibody (Chemicon, catalog number AP309P) diluted 1:10000 in PBST with 1% BSA was then added, 100 μL per well, and incubated at 25° C. for 1 hour. The plate was washed 5 times with PBST. The colorimetric substrate TMB was added, 100 μL/well, and developed at room temperature for 10 minutes. 1M H₂SO₄ was added, 100 μL/well, to stop the development. The absorbance at 450 nm was read on a microplate reader.

[4] = biological target: T1, recombinant human B7-H2 (ACROBiosystems); assay: ELISA, coated recombinant protein
Method: as §2

[5] = biological target: T2, recombinant human CD47-Fc protein …; assay: competition ELISA, coated CD47-Fc, competitor biotin-labelled SIRPα 2 nM
Method: as §1, with “ELISA was used to determine whether the anti-human CD47 selection antibodies secreted by the positive clones can block the binding of CD47/SIRPα. A 96-well” for “A 96-well”, “anti-human CD47 selection antibody samples” for “anti-human CD47 antibody samples”, “microplate reader. The anti-human CD47 selection antibodies capable of inhibiting the binding of the human CD47-Fc/biotin-labelled SIRPα have a neutralizing activity. […]” for “microplate reader.”

recombinant human CD47 [6] = biological target: T3, recombinant human CD47; assay: ELISA, coated recombinant human CD47
Method: ELISA was used to screen the anti-human CD47 antibodies in the hybridoma culture supernatants. A 96-well high-adsorption ELISA plate (Costar, catalog number 42592) was coated with 1 μg/mL of the recombinant human CD47 (Sino Biological Inc.) at 100 μL per well using carbonate buffer solution, pH=9.6 at 4° C. overnight. The plate was washed 5 times with PBST, and then blocked using PBST with 1% BSA, 300 μL/well, and incubated at 25° C. for 1 hour, and then washed 5 times with PBST. The culture supernatant samples and positive serum control were added, 100 μL/well, incubated at 25° C. for 1 hour, and then washed 5 times with PBST. The horseradish peroxidase-labeled anti-mouse IgG antibody (Abcam, catalog number Ab7068) diluted 1:10000 in PBST with 1% BSA was then added, 100 μL per well, and incubated at 25° C. for 1 hour. The plate was washed 5 times with PBST. The colorimetric substrate TMB was added, 100 μL/well, and developed at room temperature for 10 minutes. 1M H₂SO₄ was added, 100 μL/well, to stop the development. The absorbance at 450 nm was read on a microplate reader. Positive clones capable of secreting the anti-human CD47 selection antibodies were selected according to the magnitude of OD₄₅₀ₙₘ.

recombinant human CD47 [7] = biological target: T3, recombinant human CD47; assay: ELISA, plate coated with recombinant human CD47, OD450
recombinant human CD47 [8] = biological target: T3, recombinant human CD47; assay: SPR, Biacore X100, antibody captured on Protein A chip, CD47 as analyte
From the text: Biacore X100 instrument (purchased from GE) was used to detect the kinetic constant of the chimeric anti-human CD47 monoclonal antibodies binding to its antigen human CD47. This instrument utilizes optical surface plasmon resonance technology to detect the association and dissociation between the molecules coated on the biochip and the molecules to be tested. The main reagent used is Protein A chip (GE Healthcare, 29-1275-57). The experimental procedure is briefly described as follows: the chimeric anti-human CD47 antibodies were diluted in running buffer (1×HBS-EP+10 mM HEPES, 150 mM NaCl, 3 mM EDTA, 0.05% surfactant P20, pH7.4). During the capture-binding phase, the antibodies at a concentration of 2 μg/mL were injected for 60 seconds at a speed of 10 μL/min. During the binding phase, the antigen CD47 was diluted into multiple concentrations with running buffer, injected for 120 seconds at a speed of 30 μL/min respectively. During the dissociation phase, running buffer was injected for 600 seconds at a speed of 10 μL/min. The regeneration condition is 10 mM glycinate solution, pH1.5. Association kinetic constants and dissociation kinetic constants were analyzed and calculated by Biacore X100 evaluation software. The association kinetic constants, dissociation kinetic constants and dissociation equilibrium constants of the chimeric anti-human CD47 antibodies were shown in Table 7.
As mentioned above, Biacore X100 instrument was used to detect the binding kinetic constant of the humanized anti-human CD47 monoclonal antibodies to its antigen human CD47. The association kinetic constants, dissociation kinetic constants and dissociation equilibrium constants of the humanized anti-human CD47 antibodies were shown in Table 10.

[9] = biological target: T2, recombinant human CD47-Fc protein …; assay: blocking ELISA: plate coated with human CD47-Fc, biotin-labelled SIRPα as the blocked ligand, falling OD450 curve; the sheet labels the half-maximal value EC50

T2 sequence (Q08722 19-139 limits assumed): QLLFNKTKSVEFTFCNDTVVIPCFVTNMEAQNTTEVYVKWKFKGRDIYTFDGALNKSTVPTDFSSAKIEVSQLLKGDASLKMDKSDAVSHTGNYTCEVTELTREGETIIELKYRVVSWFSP
T3 sequence (Q08722 19-139 limits assumed): as above
recombinant human SIRPγ (ACROBiosystems), sequence (Q9P1W8 29-360 limits assumed): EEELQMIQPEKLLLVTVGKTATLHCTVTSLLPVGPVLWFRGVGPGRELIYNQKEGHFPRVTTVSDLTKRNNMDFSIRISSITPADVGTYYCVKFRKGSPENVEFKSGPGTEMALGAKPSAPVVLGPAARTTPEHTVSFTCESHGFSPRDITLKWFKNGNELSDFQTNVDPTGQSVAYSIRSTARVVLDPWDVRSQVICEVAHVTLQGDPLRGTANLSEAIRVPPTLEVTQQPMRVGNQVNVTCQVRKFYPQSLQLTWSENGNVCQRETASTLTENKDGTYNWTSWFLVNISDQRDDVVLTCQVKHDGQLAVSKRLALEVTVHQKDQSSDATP

IC50 [5] | EC50 (recombinant human CD47 [6]) | EC50 (recombinant human CD47 [7]) | Kd (recombinant human CD47 [8]) | koff (recombinant human CD47 [8]) | kon (recombinant human CD47 [8]) | IC50 [9] | Binder | also measured
– | – | – | – | – | – | – | chimeric anti-human CD47 monoclonal antibody mAb-18-10 N297A (antibody, human IgG1, kappa, N297A, no further substitution applied) heavy: not shown light: DIVMTQSQKFMSTSVGDRVSITCKASQNVRTSIAWYQQKPGQSPKTLIYLASNRHTGVPDRFTGSGSGTDFTLTISNVQSEDLADYFCLQHWNYPFTFGSGTKLEIKRTVAAPSVFIFPPSDEQLKSGTASVVCLLNNFYPREAKVQWKVDNALQSGNSQESVTEQDSKDSTYSLSSTLTLSKADYEKHKVYACEVTHQGLSSPVTKSFNRGEC | IC50 [1]: 1.69 nM; EC50 (recombinant human CD47 [2]): 0.031 nM; binding result [3]: no binding; binding result [4]: no binding
1.48 nM | 0.252 nM | – | – | – | – | – | anti-human CD47 murine monoclonal antibody secreted by clone CD47-18-5 (antibody, V domains shown, murine hybridoma antibody) VH: EVQLQQSGAELVKPGASVKLSCTASGFNIEDIYMHWVKQRPEQGLEWIGRIDPANDNTKYGPKLQGRATITADTSSNTAYLQLSGLTSEDTGVYYCVRRIPTDIMDYWGPGTSVTVSS VL: DIVMTQSQKFMSTSVGDRVSITCKASQNVRTSIAWYQQKSGQSPKTLIYLASNRHTGVPDRFTGSGSGTDFTLTISNVQSEDLADYFCLQHWNYPFTFGSGTKLEIK | –
2.1 nM | 0.273 nM | – | – | – | – | – | anti-human CD47 murine monoclonal antibody secreted by clone CD47-18-10 (antibody, V domains shown, murine hybridoma antibody) VH: EVQLQQSGAELVKPGASVKLSCTASGFNIEDIYMHWVKQRPEQGLEWIGRIDPANDNTKYGPKFQGRATMTADTSSNTAYLQLSGLTSEDTGVYYCVRRITTDVMDYWGQGTSVTVSS VL: DIVMTQSQKFMSTSVGDRVSITCKASQNVRTSIAWYQQKPGQSPKTLIYLASNRHTGVPDRFTGSGSGTDFTLTISNVQSEDLADYFCLQHWNYPFTFGSGTKLEIK | –
– | – | 0.035 nM | 1.17 nM | 0.00117 s⁻¹ | 998000 M⁻¹ s⁻¹ | 0.781 nM | humanized anti-human CD47 monoclonal antibody BH3008b (antibody, human IgG4 S228P, kappa, V domains shown, variable regions of Z11; the summary calls the humanized antibody an IgG4; also called Z11) VH: QVQLVQSGAEVKKPGSSVKVSCKASGFNIEDIYMHWVRQAPGQGLEWMGRIDPANDNTKYGPKLQGRVTITADTSTNTAYMELSSLRSEDTAVYYCVRRIPTDIMDYWGQGTTVTVSS VL: DIQMTQSPSSLSASVGDRVTITCKASQNVRTSIAWYQQKPGKAPKTLIYLASNRHTGVPSRFSGSGSGTEFTLTISNLQPEDFATYYCLQHWNYPFTFGQGTKLEIKR | –
– | – | 0.029 nM | 0.833 nM | 0.000852 s⁻¹ | 1.02e+06 M⁻¹ s⁻¹ | 0.741 nM | humanized anti-human CD47 monoclonal antibody BH3011b (antibody, human IgG4 S228P, kappa, V domains shown, variable regions of Z12; the summary calls the humanized antibody an IgG4; also called Z12; BH301Tb) VH: QVQLVQSGAEVKKPGSSVKVSCKASGFNIEDIYMHWVRQAPGQGLEWMGRIDPANDNTKYGPKLQGRVTITADTSTNTAYMELSSLRSEDTAVYYCVRRIPTDIMDYWGQGTTVTVSS VL: DIQMTQSPSSLSASVGDRVTITCKASQNVRTSIAWYQQKPGKAPKTLIYLASNRHTGVPSRFSGSGSGTEFTLTISNLQPEDFATYFCLQHWNYPFTFGQGTKLEIKR | –
